Data set [1] concerns the target T1, LCAT (purified from human plasma) (human, UniProt P04180 25-440).
T1 sequence (looked up): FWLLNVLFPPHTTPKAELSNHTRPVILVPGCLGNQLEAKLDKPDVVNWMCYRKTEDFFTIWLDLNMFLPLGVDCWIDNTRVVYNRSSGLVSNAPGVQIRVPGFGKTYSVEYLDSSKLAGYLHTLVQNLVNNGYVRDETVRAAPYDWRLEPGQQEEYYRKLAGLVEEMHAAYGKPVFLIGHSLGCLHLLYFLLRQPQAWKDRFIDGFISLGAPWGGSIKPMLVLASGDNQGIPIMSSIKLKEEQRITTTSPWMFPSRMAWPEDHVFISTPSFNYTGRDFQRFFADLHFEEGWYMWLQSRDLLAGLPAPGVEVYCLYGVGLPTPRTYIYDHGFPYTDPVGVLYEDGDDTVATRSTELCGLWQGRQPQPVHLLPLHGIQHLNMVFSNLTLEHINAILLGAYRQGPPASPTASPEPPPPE
As to the kind of experiment: cell-based or functional assay.

Data set [2] concerns the molecule itself. As to the kind of experiment: tryptophan fluorescence emission maximum (332 nm), peptide free in buffer; self-association.

As for PVLDLFRELGNELLEALKQKLK [peptide 9], the “ACTIVITY (%) LCAT” value in data set [1] turned out to be 63%.

B1: peptide 15 (peptide)
peptide: PVLDLFRELWNELLEALKQKLK
notes: peptide 4 containing a Trp residue at position 10
For B1, the binding result in data set [2] was “binds”.

The record behind these values is patent US20050215467A1 (published 2005).
